According to patent US20170112792A1 (BETH ISRAEL DEACONESS MEDICAL CENTER, published 2017):
Substitutions are numbered along the chain they refer to.

T1: myc-MKP3 (UniProt Q16828 1-381)
T1 construct: also called MAP kinase phosphatase 3; not shown: myc tag
T1 sequence (looked up): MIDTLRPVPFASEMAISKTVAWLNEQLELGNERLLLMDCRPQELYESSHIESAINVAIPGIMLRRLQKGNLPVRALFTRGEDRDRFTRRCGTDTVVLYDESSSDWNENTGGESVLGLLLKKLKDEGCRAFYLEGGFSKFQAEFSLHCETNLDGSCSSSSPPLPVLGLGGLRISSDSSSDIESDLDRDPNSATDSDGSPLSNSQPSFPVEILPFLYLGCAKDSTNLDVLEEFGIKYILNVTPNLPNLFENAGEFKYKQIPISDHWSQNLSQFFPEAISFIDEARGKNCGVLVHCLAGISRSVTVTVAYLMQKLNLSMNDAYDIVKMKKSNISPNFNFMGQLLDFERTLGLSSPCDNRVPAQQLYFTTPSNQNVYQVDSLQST

T2: IRAKM S110E peptide (IRAKM residues 103-124 with the S110E substitution)
T2 construct: Synthetic peptide; also called IRAKM Ser110E
T2 peptide: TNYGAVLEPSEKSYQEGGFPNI

T3: IRAKM P111A (UniProt Q9Y616 1-596)
T3 construct: also called P111A mutant; P111 mutation
T3 sequence (looked up): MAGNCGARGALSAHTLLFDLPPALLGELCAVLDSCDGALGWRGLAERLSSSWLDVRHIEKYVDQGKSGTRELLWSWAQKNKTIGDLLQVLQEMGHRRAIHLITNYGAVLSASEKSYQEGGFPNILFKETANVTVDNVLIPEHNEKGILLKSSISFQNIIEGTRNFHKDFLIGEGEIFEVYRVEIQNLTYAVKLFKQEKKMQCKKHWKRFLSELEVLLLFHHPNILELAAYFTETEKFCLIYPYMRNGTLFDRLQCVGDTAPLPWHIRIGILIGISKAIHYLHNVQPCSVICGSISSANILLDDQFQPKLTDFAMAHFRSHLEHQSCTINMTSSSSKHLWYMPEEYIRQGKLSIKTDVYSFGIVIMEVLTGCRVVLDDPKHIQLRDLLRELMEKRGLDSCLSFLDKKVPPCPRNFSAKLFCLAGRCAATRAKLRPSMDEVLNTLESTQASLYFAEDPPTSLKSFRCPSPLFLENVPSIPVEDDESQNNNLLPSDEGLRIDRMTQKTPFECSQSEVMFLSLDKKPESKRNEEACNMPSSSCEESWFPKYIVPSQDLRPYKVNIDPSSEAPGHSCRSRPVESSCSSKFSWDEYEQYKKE

T4: IRAKM, overexpressed, from IL-33-treated cells (UniProt Q9Y616 1-596, phosphoserine at 110 (LC-MS/MS of the GST-Pin1-bound protein))
T4 construct: also called WT IRAKM
T4 sequence (looked up): T3 sequence (looked up) with A111P

B1: endogenous Rab2A (HMLE cells) (enzyme, human, UniProt P61019 2-212, looked up)
chain: AYAYLFKYIIIGDTGVGKSCLLLQFTDKRFQPVHDLTIGVEFGARMITIDGKQIKLQIWDTAGQESFRSITRSYYRGAAGALLVYDITRRDTFNHLTTWLEDARQHSNSNMVIMLIGNKSDLESRREVKKEEGEAFAREHGLIFMETSAKTASNVEEAFINTAKEIYEKIQEGVFDINNEANGIKIGPQHAATNATHAGNQGGQQAGGGCC
B2: Flag-Rab2A (enzyme, UniProt P61019 1-212, looked up)
chain: MAYAYLFKYIIIGDTGVGKSCLLLQFTDKRFQPVHDLTIGVEFGARMITIDGKQIKLQIWDTAGQESFRSITRSYYRGAAGALLVYDITRRDTFNHLTTWLEDARQHSNSNMVIMLIGNKSDLESRREVKKEEGEAFAREHGLIFMETSAKTASNVEEAFINTAKEIYEKIQEGVFDINNEANGIKIGPQHAATNATHAGNQGGQQAGGGCC
notes: Expressed in HEK293/293T or HMLE cells; also called Flag-tagged wild-type Rab2A; not shown: Flag tag
B3: GST-Rab2A (wild type) (enzyme, UniProt P61019 1-212, looked up)
chain: B2 chain
notes: also called wild-type GST-Rab2A fusion protein; not shown: GST tag
B4: GST-Rab2A mut1/2 (enzyme, UniProt P61019 1-212, looked up)
chain: B2 chain with K29A, R30A, L37A, I39A
notes: not shown: GST tag
B5: Erk1 (enzyme, human, UniProt P27361 1-379, looked up)
chain: MAAAAAQGGGGGEPRRTEGVGPGVPGEVEMVKGQPFDVGPRYTQLQYIGEGAYGMVSSAYDHVRKTRVAIKKISPFEHQTYCQRTLREIQILLRFRHENVIGIRDILRASTLEAMRDVYIVQDLMETDLYKLLKSQQLSNDHICYFLYQILRGLKYIHSANVLHRDLKPSNLLINTTCDLKICDFGLARIADPEHDHTGFLTEYVATRWYRAPEIMLNSKGYTKSIDIWSVGCILAEMLSNRPIFPGKHYLDQLNHILGILGSPSQEDLNCIINMKARNYLQSLPSKTKVAWAKLFPKSDSKALDLLDRMLTFNPNKRITVEEALAHPYLEQYYDPTDEPVAEEPFTFAMELDDLPKERLKELIFQETARFQPGVLEAP
notes: entries are written once for Erk1 and once for Erk2; also called Erk1/2 (member Erk1); total Erk1/2
B6: 15N-labeled Pin1 WW domain (Pin1 residues 1-50) (other, UniProt Q13526 1-50, looked up)
chain: MADEEKLPPGWEKRMSRSSGRVYYFNHITNASQWERPSGNSSSGGKNGQG
modifications: uniformly 15N-labeled
notes: range 1-50; also called 15N-Pin1-WW; 15N-Pin1 WW
B7: Pin1, endogenous in DC2.4 cells (enzyme, mouse, UniProt Q9QUR7 1-165, looked up)
chain: MADEEKLPPGWEKRMSRSSGRVYYFNHITNASQWERPSGGSTVGGSSKNGQGEPAKVRCSHLLVKHSQSRRPSSWRQEKITRSKEEALELINGYIQKIKSGEEDFESLASQFSDCSSAKARGDLGPFSRGQMQKPFEDASFALRTGEMSGPVFTDSGIHIILRTE
B8: GFP-PPlase (other)
chain: GKNGQGEPARVRCSHLLVKHSQSRRPSSWRQEKITRTKEEALELINGYIQKIKSGEEDFESLASQFSDCSSAKARGDLGAFSRGQMQKPFEDASFALRTGEMSGPVFTDSGIHIILRTE
notes: also called GFP fused the Pin1 peptidyl-prolyl cis-trans isomerase (PPlase) domain; GFP-PPlase domain; not shown: GFP

Tests used:
Erk2 [1] = target: T5, Erk2 (human, UniProt P28482 1-360); assay: reciprocal co-IP of endogenous proteins from HMLE lysate, western blot; the Erk1/2 strip does not separate Erk1 from Erk2
T5 construct: entries are written once for Erk1 and once for Erk2; also called Erk1/2 (member Erk2); total Erk1/2

Erk1 [2] = target: B5; assay: as above
[3] = target: T6, p-Erk1 (phosphorylated Erk1) (human, UniProt P27361 2-379, phosphorylated (p-Erk1/2, induced by constitutively active MEK1); sites not given); assay: Flag co-IP from HEK293 cells transfected with Flag-Rab2A with or without AcMEK1, western blot
T6 construct: also called p-Erk1/2 (member Erk1)

Erk2 [4] = target: T5, Erk2; assay: as above
Erk1 [5] = target: B5; assay: as above
[6] = target: T7, p-Erk2 (phosphorylated Erk2) (human, UniProt P28482 2-360, phosphorylated (p-Erk1/2, induced by constitutively active MEK1); sites not given); assay: as above
T7 construct: also called p-Erk1/2 (member Erk2)

Erk2 [7] = target: T5, Erk2; assay: GST pull-down of endogenous Erk1/2 from cell lysate, western blot
Erk1 [8] = target: B5; assay: as above
myc-MKP3 = target: T1, myc-MKP3; assay: competition co-IP: Flag IP of 293T lysates with a constant dose of Flag-Rab2A (competitor) and falling doses of myc-MKP3, western blot for Erk1/2
[9] = target: T2, IRAKM S110E peptide (IRAKM residues …); assay: NMR titration, 1H-15N HSQC chemical shift changes
IRAKM P111A = target: T3, IRAKM P111A; assay: co-IP with anti-IRAKM antibody from DC2.4 cells stably expressing P111A, western blot for Pin1
[10] = target: T4, IRAKM, overexpressed, from …; assay: co-IP with anti-GFP antibody from IL-33-treated HEK293 cells co-expressing IRAKM, western blot for IRAKM

T5 sequence (P28482 whole entry): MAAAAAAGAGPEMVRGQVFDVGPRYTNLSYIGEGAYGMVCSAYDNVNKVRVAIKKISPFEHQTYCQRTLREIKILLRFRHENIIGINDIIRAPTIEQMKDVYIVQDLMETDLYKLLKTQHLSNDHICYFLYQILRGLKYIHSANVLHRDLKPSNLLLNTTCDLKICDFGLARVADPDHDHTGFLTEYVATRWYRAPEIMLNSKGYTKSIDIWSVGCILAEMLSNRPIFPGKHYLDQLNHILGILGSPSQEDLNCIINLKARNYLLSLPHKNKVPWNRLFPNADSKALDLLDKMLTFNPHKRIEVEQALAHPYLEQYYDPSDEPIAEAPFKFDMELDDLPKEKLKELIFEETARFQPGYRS
T7 sequence (P28482 2-360 limits assumed): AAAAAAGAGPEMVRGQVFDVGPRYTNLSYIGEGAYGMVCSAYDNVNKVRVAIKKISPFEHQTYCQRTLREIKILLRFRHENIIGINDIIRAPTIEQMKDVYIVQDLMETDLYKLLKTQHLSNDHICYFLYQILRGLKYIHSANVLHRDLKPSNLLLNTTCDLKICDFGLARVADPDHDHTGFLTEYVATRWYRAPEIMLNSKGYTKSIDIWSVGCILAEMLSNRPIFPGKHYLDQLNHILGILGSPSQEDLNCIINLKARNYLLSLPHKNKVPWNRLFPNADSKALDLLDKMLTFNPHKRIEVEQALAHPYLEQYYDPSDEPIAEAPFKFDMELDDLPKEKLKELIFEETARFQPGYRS

Binder: B1
- binding result (Erk2 [1]): binds
- binding result (Erk1 [2]): binds

Binder: B2
- binding result [3]: binds
- binding result (Erk2 [4]): binds
- binding result (Erk1 [5]): binds
- binding result [6]: binds

Binder: B3
- binding result (Erk2 [7]): binds
- binding result (Erk1 [8]): binds

Binder: B4
- binding result (Erk2 [7]): no binding
- binding result (Erk1 [8]): no binding

Binder: B5
- binding result (myc-MKP3): binds

Binder: B6
- Kd [9]: 1510 µM

Binder: B7
- binding result (IRAKM P111A): no binding

Binder: B8
- binding result [10]: no binding
